Data on 1 molecule can be found in article PMC7669825, “Escherichia coli RelA Regulation via Its C-Terminal Domain” (Frontiers in Microbiology, 2020).

Data set [1] deals with the molecule itself. Briefly: cross-linking; 10 ul with 12.5 mM Na phosphate pH 7.2, 12.5 mM NaCl, 2.5% glycerol, 1 x 10^-3% glutaraldehyde, 4 ug of protein; 15 min on ice; SDS-PAGE and Western blot with anti-His antibody.
For data set [2], the target named is T1, RelA (Escherichia coli, full length, His-tagged) (Escherichia coli, UniProt P0AG20 1-744).
T1 construct: RelA, (p)ppGpp synthetase of Escherichia coli, 84 kDa, 744 AA (NTD AAs 1-455, CTD AAs 405-744); also called WT RelA; WT-RelA; source: E. coli CF9467 (pQE30-relA), purified (Ni-NTA agarose); not shown: His6, N-terminal, kept
T1 sequence (looked up): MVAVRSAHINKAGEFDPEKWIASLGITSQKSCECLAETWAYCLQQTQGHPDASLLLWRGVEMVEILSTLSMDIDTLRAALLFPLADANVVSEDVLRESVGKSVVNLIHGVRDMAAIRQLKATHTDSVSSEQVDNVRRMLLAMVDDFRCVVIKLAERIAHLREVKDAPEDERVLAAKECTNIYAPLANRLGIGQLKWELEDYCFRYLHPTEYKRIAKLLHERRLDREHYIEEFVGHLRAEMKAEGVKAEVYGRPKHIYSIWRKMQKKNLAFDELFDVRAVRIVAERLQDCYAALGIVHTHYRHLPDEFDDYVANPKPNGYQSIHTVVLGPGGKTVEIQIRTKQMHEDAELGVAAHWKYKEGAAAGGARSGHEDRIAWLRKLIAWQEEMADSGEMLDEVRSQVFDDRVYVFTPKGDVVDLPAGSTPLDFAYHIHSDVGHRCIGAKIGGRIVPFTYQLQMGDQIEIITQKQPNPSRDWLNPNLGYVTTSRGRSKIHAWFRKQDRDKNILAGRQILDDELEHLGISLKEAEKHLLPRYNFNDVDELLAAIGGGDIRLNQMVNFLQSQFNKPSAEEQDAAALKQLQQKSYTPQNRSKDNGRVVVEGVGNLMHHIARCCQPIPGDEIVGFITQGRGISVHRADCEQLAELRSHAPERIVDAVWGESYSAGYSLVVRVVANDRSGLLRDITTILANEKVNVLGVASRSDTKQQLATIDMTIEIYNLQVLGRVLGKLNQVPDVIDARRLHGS
Described as above. As to conditions: both partners purified.

B1: YG4 (fragment of the RelA C-terminal domain, AA 564-744, His-tagged) (domain or fragment, Escherichia coli, UniProt P0AG20 564-744, looked up)
chain: FNKPSAEEQDAAALKQLQQKSYTPQNRSKDNGRVVVEGVGNLMHHIARCCQPIPGDEIVGFITQGRGISVHRADCEQLAELRSHAPERIVDAVWGESYSAGYSLVVRVVANDRSGLLRDITTILANEKVNVLGVASRSDTKQQLATIDMTIEIYNLQVLGRVLGKLNQVPDVIDARRLHGS
notes: RelA of Escherichia coli, AA 564-744 (MW 21 kDa); holds the RIS domain (AA 585-660) and the ACT domain (AA 665-744); also called native YG4; WT-YG4; source: E. coli CF9467 (pYG4), purified (Ni-NTA agarose); not shown: His6, N-terminal, kept
In the case of B1, the binding result in data set [1] and in data set [2] was “binds” throughout.
